Data: patent US20200207857A1
Changes are numbered by the printed parent chain.

B1: Anti-CLDN 18.2-5C9o (humanized antibody h5C9o) (antibody, V domains shown)
VH: EVQLVESGGGLVQPGGSLRLSCAVSGYTFSMNWVRQAPGKGLEWVAWINMYTGEPTYADDFKGRFTISRDDSKNTLYLQMNSLRAEDTAVYYCARLYNGNSLDYWGQGTLVTVSS
VL: DIQMTQSPSSLSASVGDRVTITCKSSQSLLNSGNQKSYLTWYQQKPGKAPKLLIYWASTLESGVPSRFSGSGSGTDYTLTISSLQPEDFATYYCQNAYSFPFTFGQGTKVEIK
B2: Anti-CLDN 18.2-5H1 (antibody, V domains shown)
VH: VQLQESGAELVRPGTSVKVSCKASGYAFTNYLIEWIKQRPGQGLEWIGMINPGSGGTKYNEKFKGKASLTADKTSSTAYMQLSSLTSDDSAVYFCARGGFGNSFAYWGQGTLVTVSA
VL: DIMMTQSPLSLTVTAGEKVTMTCKSSQSLLNSGNLKNYLTWYQQKPGQPPKLLTYWASTRESGVPTRFTGSGSATDFTLTISSVQAEDLAVYYCQNAYFYPYTFGGGTKLEIK
B3: Anti-CLDN 18.2-7H1 (antibody, V domains shown)
VL: DIVLTQSPAILSVSPGEKVTMTCRASSSVSYMHWYQQKPGSSPKPWIYGTSNLASGVPARFSGSGSGTSYSLTISRVEAEDAATYYCQQWSSNPLTFGTGTKLELK
V domain: KVQLQESGGGSVQPGGSLKLSCAASGFTFSSYSMSWVRQTPEKRLEWVAYISNLGGATYYPDTVKGRFTVSRDNARNSLYLQMTSLKSDDTAMYYCTRHNYGYDGFADWGQGTLATVSA
B4: humanized anti-Claudin 18.2 antibody h5C9oao (antibody, human IgG1, kappa, V domains shown)
VH: B1 VH with Y97A, N98R, L102M
VL: DIQMTQSPSSLSASVGDRVTITCKSSQSLLNSGNQKSYLTWYQQKPGKAPKLLIYWASTLESGVPSRFSGSGSGTDYTLTISSLQPEDFATYYCQNAYFFPFTFGQGTKVEIKR
B5: Anti-CLDN 18.2-5C9ob (humanized antibody h5C9ob) (antibody, human IgG1, V domains shown)
VH: B1 VH
VL: B1 VL with S99F
B6: Anti-CLDN 18.2-5C9oae (humanized antibody h5C9oae) (antibody, human IgG1, V domains shown)
VH: B1 VH with N98R
VL: B1 VL with S99F
B7: h5C9o Fc mutation (antibody, V domains shown)
VH: B1 VH
VL: B4 VL with F99S
B8: Anti-CLDN 18.2-15G11 (antibody, V domains shown)
VH: VQLQESGGGLVQPGGSRKLSCAASGFSFSSFGMHWVRQAPEKGLEWVAFISSGSSPIYYADTVKGRFTVSRDNPKNTLFLQMTSLRSEDTAMYFCARNYYGNAMDYWGQGSSVTVSS
VL: DIMMTQSPLSLTVTAGEKVTMNCKSSQSLLNGGNQKNYLAWYQQKPGQPPKLLIYWASTRESGVPARFTGSGSGTDFTLTINTVQAEDLAVYYCQNDYFYPLTFGTGTKLELK
B9: Anti-CLDN 18.2-5C9 (antibody, V domains shown)
VH: VKLQESGPELKKPGETVKISCKASGYTFTNYGMNWVKQAPGKGLKWMGWINMYTGEPTYADDFKGRFAFSLETSASTAYLQINNLKNEDTATYFCSRLYNGNSLDYWGQGTSLTVSS
VL: DILLTQSPLSLTVTAGEKVTMSCKSSQSLLNSGNQKSYLTWYQQKPGQPPKLLLYWASTRESGVPARFTGSGSGTDFSLTISSVQTEDLAVYYCQNAYSFPFTFGSGTKLEIN
B10: h5C9oaj (antibody, human IgG1, kappa, V domains shown)
VH: B1 VH with Y97A, N98R, L102I
VL: B4 VL with F99Y
B11: h5C9oab (antibody, V domains shown)
VH: B1 VH
VL: B1 VL with S99Y
B12: h5C9oaf (antibody, V domains shown)
VH: B1 VH with Y97F
VL: B4 VL with F99Y
B13: h5C9oak (antibody, human IgG1, kappa, V domains shown)
VH: B1 VH with L96S, Y97S, N98R, S101G, L102F
VL: B4 VL with F99Y
B14: h5C9oal (antibody, human IgG1, kappa, V domains shown)
VH: B1 VH with Y97A, N98R, L102M
VL: B4 VL with F99Y
B15: h5C9oad (antibody, V domains shown)
VH: B1 VH with N98R
VL: B1 VL with S99Y
B16: h5C9oam (antibody, human IgG1, kappa, V domains shown)
VH: B1 VH with Y97A, N98R, L102I
VL: B4 VL
B17: h5C9oh (antibody, V domains shown)
VH: B1 VH with N98R
VL: B1 VL with S99E
B18: h5C9oi (antibody, V domains shown)
VH: B1 VH with L96M
VL: B1 VL with A97S
B19: h5C9oj (antibody, V domains shown)
VH: B1 VH with S101A
VL: B1 VL with S99F
B20: humanized anti-Claudin 18.2 antibody h5C9oan (antibody, human IgG1, kappa, V domains shown)
VH: B1 VH with L96S, Y97S, N98R, S101G, L102F
VL: B4 VL
B21: Anti-CLDN 18.2-5C9oag (humanized antibody h5C9oag) (antibody, human IgG1, V domains shown)
VH: B1 VH with Y97A, N98R, L102I
VL: B1 VL
B22: Anti-CLDN 18.2-5C9oai (humanized antibody h5C9oai) (antibody, human IgG1, V domains shown)
VH: B1 VH with Y97A, N98R, L102M
VL: B1 VL
B23: h5C9oah (antibody, V domains shown)
VH: B1 VH with L96S, Y97S, N98R, S101G, L102F
VL: B1 VL
B24: chimeric anti-CLDN 18.2 antibody ch15G11 (antibody, V domains shown)
VH: EVQLQESGGGLVQPGGSRKLSCAASGFSFSSFGMHWVRQAPEKGLEWVAFISSGSSPIYYADTVKGRFTVSRDNPKNTLFLQMTSLRSEDTAMYFCARNYYGNAMDYWGQGSSVTVSS
VL: DIMMTQSPLSLTVTAGEKVTMNCKSSQSLLNGGNQKNYLAWYQQKPGQPPKLLIYWASTRESGVPARFTGSGSGTDFTLTINTVQAEDLAVYYCQNDYFYPLTFGTGTKLELKR
B25: chimeric anti-CLDN 18.2 antibody ch5C9 (antibody, human IgG1, kappa, V domains shown)
VH: EVKLQESGPELKKPGETVKISCKASGYTFTNYGMNWVKQAPGKGLKWMGWINMYTGEPTYADDFKGRFAFSLETSASTAYLQINNLKNEDTATYFCSRLYNGNSLDYWGQGTSLTVSS
VL: DILLTQSPLSLTVTAGEKVTMSCKSSQSLLNSGNQKSYLTWYQQKPGQPPKLLLYWASTRESGVPARFTGSGSGTDFSLTISSVQTEDLAVYYCQNAYSFPFTFGSGTKLEINR
B26: chimeric anti-CLDN 18.2 antibody ch9A1 (antibody, human IgG1, kappa, V domains shown)
VH: EVQLQQSGAELVRPGTSVKVSCKASRYAFTNYLIEWVKQRPGQGLEWIGMINPGSGGTHYNEKFKVKATLTADKSSSTAYMQLSSLTSDDSAVYFCARGGFGNSFAYWGQGTLVTVSA
VL: DILLTQSPLSLTVTAGEKVTMSCKSSQSLLNGGNLKNYLTWYQQKPGQPPKLLTYWASTRESGVPVRFTGSGSGTDFTLTISSVQAEDLAVYYCQNGYFYPYTFGGGTKLEIKR

Each binder was assayed against Recombinant protein Claudin 18.2 (assay: ELISA, recombinant Claudin 18.2 coated at 4.5 ug/mL (Example 67), OD450; Kd box under the graph without column head (the only rising curve is h5C9o_CLN18.2), no unit in the box, unit from the x axis log[antibody] nM).
Recombinant protein Claudin 18.2, sequence (chain, as listed by the source limits assumed, form in doubt): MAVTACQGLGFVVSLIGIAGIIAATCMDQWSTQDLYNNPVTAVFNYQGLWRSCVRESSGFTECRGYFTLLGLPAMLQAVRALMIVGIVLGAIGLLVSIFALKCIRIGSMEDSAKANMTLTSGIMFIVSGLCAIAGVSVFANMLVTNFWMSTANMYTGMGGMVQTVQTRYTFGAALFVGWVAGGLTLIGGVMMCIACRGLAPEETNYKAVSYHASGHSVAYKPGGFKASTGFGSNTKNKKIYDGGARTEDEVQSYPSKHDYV

With B1 the Kd was 87.3 pM.

The binders below were run against Recombinant protein Claudin 18.2 (assay: binding study 'as in Example 1'; method not named (ELISA on recombinant Claudin 18.2 assumed)).

B2 and B3 are within 1.5-fold of each other in Kd: 320 pM for the first, 267 pM for the second.

Each binder was assayed against Recombinant protein Claudin 18.2 (assay: ELISA on plate-coated recombinant Claudin 18.2, OD450; Kd table under the graph, no unit in the table, unit from the x axis log[antibody] nM).

B1 and B4 are within 1.5-fold of each other in Kd: 128 pM for the first, 134 pM for the second.

B5 and B6 are within 1.5-fold of each other in Kd: 129 pM for the first, 140 pM for the second.

Work on B7 yielded a Kd of 114 pM.

What follows are binders tested against Recombinant protein Claudin 18.2 (assay: ELISA on plate-coated recombinant Claudin 18.2, OD370; Kd table under the graph, no unit in the table, unit from the x axis log[antibody] nM).

B8 and B9 are within 1.5-fold of each other in Kd: 66.2 pM for the first, 69.9 pM for the second.

Each binder was assayed against Recombinant protein Claudin 18.2 (assay: ELISA-based assay on Claudin 18.2, y axis RLU; Kd table under the graph, no unit in the table, unit from the x axis log[antibody] nM).

B10 and B11 are within 1.5-fold of each other in Kd: 173 pM for the first, 164 pM for the second.

B12 and B13 are within 1.5-fold of each other in Kd: 162 pM for the first, 161 pM for the second.

B5 and B14 are within 1.5-fold of each other in Kd: 160 pM for the first, 198 pM for the second.

B15 and B16 are within 1.5-fold of each other in Kd: 175 pM for the first, 172 pM for the second.

Target: Recombinant protein Claudin 18.2
Assay: ELISA on plate-coated recombinant Claudin 18.2, OD450; Kd table under the graph, no unit in the table, unit from the x axis log[antibody] nM
Remark: another data set of the same source

B1 and B17 are within 1.5-fold of each other in Kd: 89.2 pM for the first, 80.2 pM for the second.

B18 and B5 are within 1.5-fold of each other in Kd: 86.8 pM for the first, 86.3 pM for the second.

B19 showed a Kd of 77.7 pM.

The binders below were run against Recombinant protein Claudin 18.2 (assay: ELISA as in Example 1, recombinant Claudin 18.2 coated on the plate, OD450, linear axis in ng/ml).

B8 and B9 are within 1.5-fold of each other in EC50 (read off the curve): 0.06 µg/mL for the first, 0.05 µg/mL for the second.

What follows are binders tested against human Claudin 18.1 (CLDN 18.1) expressed on HEK293 cells (human) (UniProt P56856) (assay: flow cytometry, 293T-CLDN18.1 cells, FL1-A histogram, gate P1; untransfected 293T: M1 0.1%).
human Claudin 18.1 (CLDN 18.1) expressed on HEK293 cells (human), sequence (P56856 whole entry): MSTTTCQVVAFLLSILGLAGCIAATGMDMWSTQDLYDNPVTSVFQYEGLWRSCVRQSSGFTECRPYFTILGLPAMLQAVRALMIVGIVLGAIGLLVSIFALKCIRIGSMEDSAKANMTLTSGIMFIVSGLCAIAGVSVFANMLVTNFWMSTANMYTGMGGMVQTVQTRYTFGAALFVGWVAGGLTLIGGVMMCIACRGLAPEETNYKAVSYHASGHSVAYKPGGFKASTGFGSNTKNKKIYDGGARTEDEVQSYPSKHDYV

B8 and B9 are the same in % of cells in gate M1: 0.7% for the first, 0.7% for the second.

Target: Recombinant protein Claudin 18.2
Assay: ELISA-based assay on Claudin 18.2, y axis RLU; Kd table under the graph, no unit in the table, unit from the x axis log[antibody] nM
Remark: another data set of the same source

B1 and B4 are within 1.5-fold of each other in Kd: 140 pM for the first, 102 pM for the second.

B20 and B5 are within 1.5-fold of each other in Kd: 120 pM for the first, 130 pM for the second.

B6 and B7 are within 1.5-fold of each other in Kd: 109 pM for the first, 162 pM for the second.

Target: Recombinant protein Claudin 18.2
Assay: as above
Remark: another data set of the same source

Going from B17 to B18, the Kd rises from 201 pM to 316 pM (1.6-fold).

B5 and B21 are within 1.5-fold of each other in Kd: 213 pM for the first, 196 pM for the second.

B22 and B6 are within 1.5-fold of each other in Kd: 196 pM for the first, 183 pM for the second.

B19 and B23 are within 1.5-fold of each other in Kd: 276 pM for the first, 236 pM for the second.

What follows are binders tested against Recombinant protein Claudin 18.2 (assay: ELISA, recombinant Claudin 18.2 coated at 4.5 ug/mL (Example 67), OD370; Kd table under the graph, no unit in the table, unit from the x axis log[antibody] nM).

B24 and B25 are within 1.5-fold of each other in Kd: 93.9 pM for the first, 98.8 pM for the second.

Work on B26 yielded a Kd of 101 pM.
